Here are results for 9 proteins from paper PMC4509486, “Inside-out Ca^2+ signalling prompted by STIM1 conformational switch” (Nature Communications, 2015).

By stoichiometry N is commonly meant a count of units in the complex or per binding partner.

Residue numbers refer to the chain shown, from its start. Numbers in names are those of the source.

Data set [1] concerns the molecule itself. In words: SEC + native gel or EMSA; in vitro, with or without Ca^2+; detergents needed to keep the proteins soluble.
Data set [2] deals with the molecule itself. The data set can be described thus: SEC-MALS; Superdex 200 10/300 GL; 500 μl of 10–100 μM protein; 20 mM Tris-HCl pH 7.3, 150 mM NaCl, 2 mM dithiothreitol, 0.6% N-lauroylsarcosine; 0.3 ml/min. (In general: In gel filtration, larger molecules generally elute earlier.)
Data set [3] concerns the molecule itself. The data set can be described thus: cross-linking; copper-phenanthroline (1 mM CuSO4/3 mM 1,10-phenanthroline) disulfide cross-linking of purified protein (1 mg/ml) in 20 mM HEPES pH 7.4, 150 mM NaCl, 1 mM TCEP, on ice 15 min; non-reducing SDS-PAGE; efficiency = dimer/(monomer + dimer).
Data set [4] concerns the molecule itself. The data set can be described thus: FRET or BRET; inter-subunit FRET between FITC- and TMR-labelled monocysteine TM-CC1 in PBS pH 7.3, 1% OG, 1 mM TCEP; excitation 475 nm.

B1: STIM1 1–342 (characterized in vitro) (domain or fragment, UniProt Q13586 23-342, looked up)
chain: LSHSHSEKATGTSSGANSEESTAAEFCRIDKPLCHSEDEKLSFEAVRNIHKLMDDDANGDVDVEESDEFLREDLNYHDPTVKHSTFHGEDKLISVEDLWKAWKSSEVYNWTVDEVVQWLITYVELPQYEETFRKLQLSGHAMPRLAVTNTTMTGTVLKMTDRSHRQKLQLKALDTVLFGPPLLTRHNHLKDFMLVVSIVIGVGGCWFAYIQNRYSKEHMKKMMKDLEGLHRAEQSLHDLQERLHKAQEEHRTVEVEKVHLEKKLRDEINLAKQEAQRLKELREGTENERSRQKYAEEELEQVREALRKAEKELESHSSWY
notes: signal peptide in the construct; it may be the CFP fusion m18
As to B1, in data set [1], the “stoichiometry N” value came out at 2.

B2: GB1-TM-CC1 (STIM1 residues 209–310), wild type (domain or fragment, UniProt Q13586 209-310, looked up)
chain: NHLKDFMLVVSIVIGVGGCWFAYIQNRYSKEHMKKMMKDLEGLHRAEQSLHDLQERLHKAQEEHRTVEVEKVHLEKKLRDEINLAKQEAQRLKELREGTENE
notes: STIM1 residues 209-310 (transmembrane domain and CC1); also called STIM1_(209–310); WT; source: E. coli BL21 (DE3), purified (Ni-NTA, gel filtration); not shown: GB1, N-terminal, kept
Regarding B2, the “stoichiometry N” value in data set [2] was found to be 2.

B3: GB1-TM-CC1 monocysteine variant I220C on the C227S background (domain or fragment, UniProt Q13586 209-310, looked up)
chain: B2 chain with I12C, C19S
notes: STIM1 residues 209-310; also called I220C (C227S); source: E. coli BL21 (DE3), purified; not shown: GB1, N-terminal, kept
Consider B3, for which, in data set [3], the binding result was “binds”.

B4: GB1-TM-CC1 (STIM1 residues 209–310) C227W (domain or fragment, UniProt Q13586 209-310, looked up)
chain: B2 chain with C19W
notes: STIM1 residues 209-310; also called TM-CC1-C227W; source: E. coli BL21 (DE3), purified (Ni-NTA, gel filtration); not shown: GB1, N-terminal, kept
As to B4, the “stoichiometry N” value in data set [2] worked out at 2.

B5: GB1-TM-CC1 monocysteine variant F229C on the C227W background (domain or fragment, UniProt Q13586 209-310, looked up)
chain: B2 chain with C19W, F21C
notes: STIM1 residues 209-310; also called F229C (C227W); source: E. coli BL21 (DE3), purified; not shown: GB1, N-terminal, kept
In the case of B5, the binding result in data set [3] is listed as “binds”.

B6: GB1-TM-CC1 monocysteine variant F229C on the C227S background (domain or fragment, UniProt Q13586 209-310, looked up)
chain: B2 chain with C19S, F21C
notes: STIM1 residues 209-310; also called F229C (C227S); source: E. coli BL21 (DE3), purified; not shown: GB1, N-terminal, kept
On to B6, for which the binding result in data set [3] was “binds”.

B7: TM-CC1 monocysteine variant N234C on the C227W background, labelled with FITC or TMR (domain or fragment, UniProt Q13586 209-310, looked up)
chain: B2 chain with C19W, N26C
modifications: FITC-maleimide or TMR-maleimide on the single cysteine (N234C)
notes: STIM1 residues 209-310 (TM-CC1); also called N234C (C227W TM-CC1); source: E. coli BL21 (DE3), purified, dye-labelled
As for B7, in data set [4], the binding result was “binds”.

B8: TM-CC1 monocysteine variant F214C on the C227W background, labelled with FITC or TMR (domain or fragment, UniProt Q13586 209-310, looked up)
chain: B2 chain with F6C, C19W
modifications: FITC-maleimide or TMR-maleimide on the single cysteine (F214C)
notes: STIM1 residues 209-310 (TM-CC1); also called F214C (C227W TM-CC1); source: E. coli BL21 (DE3), purified, dye-labelled
On to B8, for which the binding result in data set [4] is on record as “binds”.

B9: GB1-TM-CC1 monocysteine variant I220C on the C227W background (domain or fragment, UniProt Q13586 209-310, looked up)
chain: B2 chain with I12C, C19W
notes: STIM1 residues 209-310; also called I220C (C227W); source: E. coli BL21 (DE3), purified; not shown: GB1, N-terminal, kept
With B9, the binding result in data set [3] was “binds”.
